The values that follow come from US9175090B2, “Methods of using an antibody to inhibit WNT-mediated signaling in cancer” (Vanderbilt University, priority 2011, dated 2015).

Where only a bound is given, the exact number is not on record here.

Data set [1] concerns Wnt signaling (TOPflash, TCF/Lef1 promoter luciferase). Briefly: TOPflash reporter assay in HEK 293 STF cells treated with Wnt3a-conditioned media. Conditions: 24 hours, read-out: IC50, inhibition of TOPflash activation (Wnt signaling). The data set is classed as cell-based. The source says: Graph represents mean±s.e.m of TOPflash signal normalized to cell number (performed in quadruplicate). […] Data shown represent mean of four independent amplification reactions, graphed as relative expression to unstimulated cells. Expression levels were normalized to β-actin mRNA. Error bars, RQ values with 95% confidence.
In general terms: A reporter such as luciferase makes a cellular process visible.

For data set [2], the system named is AXIN2 and c-MYC. Briefly: Real-time RT-PCR of endogenous Wnt target genes. The data set is classed as cell-based. Conditions: normalized to β-actin mRNA. For orientation: Quantitative PCR measures a nucleic acid by following its amplification.
In data set [3] the target is β-catenin degradation complex (Homo sapiens, UniProt P48729). As to the kind of experiment: In vitro kinase reaction with purified GSK3, CK1α, Axin and β-catenin. Format: biochemical. The following applies: pyrvinium 10 nM, proteins 100 nM each. The protocol: (§1) FIGS. 3A-C. […] Phosphorylation of β-catenin on GSK3 sites (p33,37,41) and the priming CK1α site (p45) was detected by immunoblotting. […] Cells were treated with Wnt3a-conditioned media and lysates were assayed for TOPflash to assess Wnt signaling.
Sequence of β-catenin degradation complex (P48729 whole entry, one chain of several): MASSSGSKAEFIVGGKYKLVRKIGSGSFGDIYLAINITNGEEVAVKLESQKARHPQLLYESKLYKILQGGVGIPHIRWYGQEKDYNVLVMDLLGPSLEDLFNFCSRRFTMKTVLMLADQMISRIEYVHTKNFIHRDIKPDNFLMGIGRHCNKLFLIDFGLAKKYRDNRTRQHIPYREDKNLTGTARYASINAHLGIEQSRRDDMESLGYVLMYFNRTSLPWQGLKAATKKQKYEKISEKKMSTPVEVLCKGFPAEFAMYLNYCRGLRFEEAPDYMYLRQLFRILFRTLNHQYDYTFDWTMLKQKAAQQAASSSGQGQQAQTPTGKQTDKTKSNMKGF
(§2) The inventors used a cell line with reduced CK1α levels due to inducible expression of shRNA against CK1α.

Data set [4] addresses CK1α (Homo sapiens, UniProt P48729). As to the kind of experiment: Binding and activation of purified recombinant kinases. Format: biochemical.
The target of data set [5] is GSK3 (Homo sapiens, UniProt P49841). As to the kind of experiment: GSK3 kinase activity. Format: biochemical. The following applies: data not shown.
Sequence of GSK3 (P49841 whole entry): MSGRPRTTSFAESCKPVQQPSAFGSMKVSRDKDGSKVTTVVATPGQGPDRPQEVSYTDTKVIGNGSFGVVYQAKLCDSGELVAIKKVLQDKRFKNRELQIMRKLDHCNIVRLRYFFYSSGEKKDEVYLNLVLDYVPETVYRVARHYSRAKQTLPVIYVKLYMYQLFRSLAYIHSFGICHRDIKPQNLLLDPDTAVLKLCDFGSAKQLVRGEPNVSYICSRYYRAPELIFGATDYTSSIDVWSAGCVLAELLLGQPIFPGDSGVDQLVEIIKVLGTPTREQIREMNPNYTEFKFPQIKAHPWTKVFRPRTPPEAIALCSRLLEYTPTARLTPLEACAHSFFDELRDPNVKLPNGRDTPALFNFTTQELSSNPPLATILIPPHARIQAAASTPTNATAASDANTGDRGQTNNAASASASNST
Source text: as §2

Data set [6] relates to Wnt signaling (TOPflash) in shRNA-CK1α cells. As to the kind of experiment: TOPflash in Jurkat cell line with inducible shRNA for CK1α. Format: cell-based. The following applies: pyrvinium 30 nM, Wnt3a-conditioned media. Here is the method: as §1, §2
Data set [7] deals with male C57Bl/6 mice with myocardial infarct. Format: in vivo. The source says: FIGS. 5A-D. Mouse MI model. Representative mouse EKG tracings pre (FIG. 5A) and post (FIG. 5B) coronary artery ligation. […] Arrows mark lateral and posterior left ventricle (LV). LVIDD, LVIDS=LV internal diameter at systole and […], respectively. RV=right ventricle. […] Cardiac dimensions were obtained from 2-D guided M-mode images (100 frames/sec) and were read blinded using short axis and a parasternal long-axis views with the leading edge method. All echo measurements were averaged over 3 consecutive beats on unsedated mice at 7 and 30 days after infarction. Statistical significance assessed by the Wilcoxon rank sum test.
Myocardial infarcts were induced in male C57Bl/6 mice by coronary ligation (FIG. 5) as previously described (Alfaro et al., 2008).
Ventricular remodeling and cardiac functional parameters will be assessed by echo.
Mammalian cardiomyocytes irreversibly withdraw from the cell cycle soon after birth and undergo terminal differentiation. […] Therefore, cardiac injury causes permanent myocardial loss and cardiac dysfunction. […] Proliferation was assessed by immunostaining for Ki-67. […] Phosphorylation of histone 3 (pH3) on Ser 10 is an established cellular marker for chromosome condensation during mitotic prophase (van Amerongen and Engel, 2008).

Data set [8] has as its system Wnt3a-mediated Wnt signaling (LRP5/6). Briefly: Wnt3a-mediated activation of the Wnt pathway, TOPflash reporter cell line (antibody). Format: cell-based. Here is the method:
FIGS. 11A-B. Wnt activated signaling. (FIG. 11A) Wnt3a activated signaling in 293 HEK cells. (FIG. 11B) Wnt signaling in SW480 colorectal cancer cell line with mutant APC.
The inventors examined effects of antibodies on Wnt signaling activated by recombinant Wnt3a, which was added to the media, and effects of antibodies on Wnt signaling in a colorectal cancer line (SW480) that has constitutively active Wnt signaling due to a mutation in the tumor suppressor, APC. […] This was unexpected because the APC mutation is downstream of the LRP6 receptor, to which the antibody is directed.

The subject of data set [9] is Wnt3a-mediated luciferase activity. As to the kind of experiment: Plasma of IV-treated mice tested on TOPflash reporter HEK cells. Conditions: for Greater inhibition of Wnt3a-mediated luciferase activity by plasma compared to IgM controls: 9.4 μg, 100 μl plasma. Format: in vivo. Here is the method:
(§3) The canonical Wnt signaling pathway was assessed using luciferase activity in HEK cells stably transfected with TOPflash reporter. Cells were treated with recombinant Wnt 3a to activate Wnt signaling. […] Cycle thresholds for 18S mRNA transcripts were used to normalize between samples. n=4 mice analyzed at each time point for each cohort. Ki-67-positive cells in the heart (FIG. 8C) and pH3-positive mononucleated, differentiated cardiomyocytes in mabLRP5/6-treated remote myocardium (FIG. 8D).
(§4) To evaluate whether mabLRP5/6 inhibits Wnt-mediated transcription in vivo, the inventors injected 3 groups of mice IV with increasing amounts of mabLRP5/6 (2.3 μg, 4.7 μg or 9.4 μg, n=3 in each group) or control IgM. Mice were sacrificed after 48 hours and serum and tissue samples were obtained. […] Heart tissues from treated animals were homogenized and total RNA isolated for real time RT-PCR analysis (Young et al., 2005). […] The effect on Axin 2 transcript persisted at 72 hours after a single administration. To obtain evidence that mabLRP5/6 has cellular effects on post-MI myocardium, the inventors analyzed by immuno-histology paraffin-embedded sections from male mice treated with either IgM or mabLRP5/6 12 hours prior to induction of acute MI and then sacrificed 14 days later (n=1 for each condition). They identified >3-fold higher Ki-67^+ and pH3^+ cells in the remote LV from the mabLRP5/6-treated mouse compared to the control IgM-treated mouse (FIGS. 8C-D).

For data set [10], the system named is Axin 2 and Cyclin D transcripts. As to the kind of experiment: Real time RT-PCR of Wnt target genes in heart homogenates of treated mice. The data set is classed as in vivo. Here is the method:
as §3, §4

Data set [11] concerns Ki-67+ and pH3+ cells in remote LV. As to the kind of experiment: Immunohistology of post-MI myocardium after antibody pretreatment. Format: in vivo, mice. The following applies: treated 12 hours prior to MI, 14 days, n=1. Here is the method: as §3
as §4, with “They identified >3-fold higher Ki-67^+ and pH3^+ cells in the remote LV from the mabLRP5/6-treated mouse compared to the control IgM-treated mouse (FIGS. 8C-D).” left out

Data set [12] relates to male C57Bl/6 mice with myocardial infarct. Briefly: Acute myocardial infarct model, IV antibody, echocardiography. The data set is classed as in vivo. Here is the method:
FIG. 9. Effect of low and high dose of mabLRP5/6 adminstered post infarct as compared to […] control. LVIDD and LVIDS to represent cardiac remodeling, and EF, ejection fraction, as a measurement of cardiac function, were determined by echocardiography and are plotted as percentage difference values (mean±SD) between 7 and 30 days after infarct.
The inventors initiated studies to determine the effectiveness of mMABLRP5/6 on repair and regeneration of injured myocardium using an mouse acute myocardial infarct model. Myocardial infarcts were induced in 8-week old male C57Bl/6 mice ([…]) by coronary ligation (FIG. 9) as previously described (Alfaro et al., 2008). At the time of infarction, the inventors administered 10 μg or 20 μg of mabLRP5/6 in 100 μl PBS or the same amount of IgM as control, intravenously by tail vein injection. The mice received a second dose of mabLRP5/6 or control antibody 72 hours after infarct to maintain at least 50% Wnt inhibition activity in the plasma through 7 days post infarct (data not shown). Ventricular remodeling and cardiac function were analyzed by echocardiography pre-infarct and at 7 and 30 days post MI. Ventricular function was reflected by ejection fraction (EF). LV internal dimension diastolic (LVIDD) and LV internal dimension systolic (LVIDS) reflected remodeling of the infarcted ventricle (FIG. 1). […] Additional numbers of animals as well as histologic myocardial analysis and high-resolution visual sonics studies are pending to determine infarct size and elucidate effects of mabLRP5/6 on endogenous cellular myocardial repair.

Data set [13] has as its system mice. Briefly: In vivo toxicity of mabLRP5/6. The following applies: mouse.
Data set [14] deals with β-catenin nuclear accumulation, RKO cells. Briefly: Wnt3a-induced nuclear accumulation of β-catenin in RKO cells. Conditions: 300 pg/ml, 24 hours.
Experimental: RKO cells were treated with Wnt3a in the presence or absence of 300 pg/ml mabLRP6 for 24 hours. Cells were fixed and immunostained for β-catenin (green). DAPI (blue) stains DNA.

Sequence of CK1α (P48729 whole entry): as the sequence (P48729 whole entry, one chain of several) above

Take `Cc1cc(/C=C/c2ccc3cc(N(C)C)ccc3[n+]2C)c(C)n1-c1ccccc1` [pyrvinium]: in [1], the IC50 – broadly, the midpoint of a concentration-inhibition curve – was approximately 10 nM. Besides, the “Levels of endogenous Wnt target genes AXIN2 and c-MYC” value in data set [2] is listed as “decreases”. In addition, the “β-catenin phosphorylation (GSK3 and CK1α sites)” value in data set [3] is listed as “dramatic increase”. Besides, the “Phosphorylation of Tau by CK1α” value in [4] (data not shown) was “enhanced”. Moreover, in data set [4] (pyrvinium 10 nM), the “Binding and activation of representative kinases” value was “binding and activation of CK1α alone”. For the same molecule, the GSK3 activity entry in data set [5] is recorded as “no observable effect”. In data set [6], the “Inhibition of TOPflash activity in shRNA-CK1α cells” value is given as “failed to inhibit”. Further, in data set [7] (data not shown), the “Infarct size, comparison between the two cohorts” value is “did not reflect any statistically significant differences”. For the same molecule, in data set [7] (mouse, in vivo), the “Numbers of Ki-67-positive cells in peri-infarct and remote myocardium, versus Cmpd 211” value is “significantly higher”; the “Numbers of Ki-67-positive cells in the scar, versus Cmpd 211” value is “similar”. The “Average difference in fractional shortening between days 7 and 30” value in data set [7] (single 200 nM injection, p<0.05) is listed as 22.3+5.2. Further, in data set [7] (single intramyocardial injection into LV apex, data not shown), the “Myocyte proliferation in sham-operated animals” value is “did not induce myocyte proliferation”.

B1: mabLRP5/6: stable hybridoma line monoclonal antibody against LRP5/6 raised in BALB/c mice with human LRP6 fragments; inhibits Wnt signaling (antibody, V domains shown)
VH: QVQLKESGPGLVASSQSLSITCTVSGFSLSRYSVHWVRQPPGKGLEWLGMIWGGGSTDYNSALKSRLGISKDNSKSQVFLKMNSLQTDDTAMYYCAGTGSWFAYWGQGTLVTVSA
VL: DIQMTQSPASLSASVGETVTITCRASGNIHNYLAWYQQKQGKSPQLLVYNAKTLADGVPSRFSGSGSGTQYSLKINSLQPEDFGSYYCQHFWSTPWTFGGGTKLEIK
For B1, the “IC50, inhibition of Wnt signaling” value in data set [8] was approximately 0.2 ng/mL. The “Greater inhibition of Wnt3a-mediated luciferase activity by plasma compared to IgM controls” value in [9] (48 hours after administration) was approximately 5 fold; in data set [9] (72 hours after administration) it was approximately 2 fold. In addition, the “Wnt signaling in TOPflash reporter cell line treated with plasma” value in data set [9] (IV 4.7 and 9.4 μg, 50 μl plasma, 48 and 72 hours) is “inhibited Wnt signaling”. The “Reduction in Axin 2 transcripts in heart compared to controls” value in data set [10] (48 h) is listed as approximately 2 fold. Further, the “Reduction in Cyclin D transcripts in heart compared to controls” value in data set [10] (48 h) is approximately 2 fold. Further, in data set [10] (72 hours after a single administration), the “Effect on Axin 2 transcript in heart” value is recorded as “persisted”. For the same molecule, the “Ki-67+ cells in remote LV, higher than control IgM” value in data set [11] is reported as more than 3 fold. For the same molecule, the “pH3+ cells in remote LV, higher than control IgM” value in data set [11] was more than 3 fold. In data set [12] (20 μg compared with 10 μg dose or control IgM), the “Percentage difference in LVIDS between day 7 and day 30” value is recorded as “reduced in a dose-dependent manner”. Besides, the results for the “Decrease in ejection fraction (EF) between day 7 and day 30” value in data set [12] (high dose) and in data set [12] (low dose) were “decreased less” and approximately 6%, respectively. In addition, the “Percentage difference in LVIDD between day 7 and day 30” value in data set [12] (high dose (20 μg IV at infarction and 72 hours)) is recorded as 5.36±0.83 percentage; in data set [12] (low dose (10 μg IV at infarction and 72 hours)), 6.23 ± 2.3 percentage. Moreover, the “Wnt inhibition activity in the plasma” value in data set [12] (second dose at 72 hours, through 7 days post infarct, data not shown) is given as “at least 50%”. Moreover, in [13], the In vivo toxicity result is on record as “minimal toxicity”. Also, the “Wnt3a-induced nuclear accumulation of β-catenin” value in data set [14] was “blocked”; in data set [14] (listed as mabLRP6), “inhibits”.
